Columns and labels:
[1] = pan-SV2 immunoblot of neuron lysates; conditions: glycan lost
[2] = target: BoNT/A1 receptor-binding domain (HCA), wild type (UniProt P0DPI0 872-1296); assay: SPR

B1: SV2C (full length, in neurons): SV2C-N559A (protein)
parent chain: MEDSYKDRTSLMKGAKDIAKEVKKQTVKKVNQAVDRAQDEYTQRSYSRFQDEDDDDDYYPPGETYSGEANDDEGSSEATEGHDEEDEIYEGEYQGIPSTNQGKDSIVSVGQPKGDEYKDRRELESERRADEEELAQQYELIIQECGHGRFQWALFFVLGMALMADGVEVFVVGFVLPSAETDLCIPNSGSGWLGSIVYLGMMVGAFFWGGLADKVGRKQSLLICMSVNGFFAFLSSFVQGYGFFLLCRLLSGFGIGGAIPTVFSYFAEVLAREKRGEHLSWLCMFWMIGGIYASAMAWAIIPHYGWSFSMGSAYQFHSWRVFVIVCALPCVSSVVALTFMPESPRFLLEVGKHDEAWMILKLIHDTNMRARGQPEKVFTVNKIKTPKQIDELIEIESDTGTWYRRCFVRIRTELYGIWLTFMRCFNYPVRENTIKLTIVWFTLSFGYYGLSVWFPDVIKHLQSDEYALLTRNVQKDKYANFSINFTMENQVHTGMEYDNGRFLGVKFKSVTFKDSVFKSCTFDDVTSVNTYFKNCTFIDTLFENTDFEPYKFIDSEFQNCSFLHNKTGCQITFDDDYSAYWIYFVNFLGTLAVLPGNIVSALLMDRIGRLTMLGGSMVLSGISCFFLWFGTSESMMIGMLCLYNGLTISAWNSLDVVTVELYPTDRRATGFGFLNALCKAAAVLGNLIFGSLVSITKAIPILLASTVLVCGGLVGLRLPDTRTQVLM
For B1, the expression_or_secretion ([1]; control: WT SV2C) was “decreases”.

B2: SV2A: SV2A-N573A (protein)
parent chain: MEEGFRDRAAFIRGAKDIAKEVKKHAAKKVVKGLDRVQDEYSRRSYSRFEEEEDDDDFPAPADGYYRGEGAQDEEEGGASSDATEGHDEDDEIYEGEYQGIPRAESGGKGERMADGAPLAGVRGGLSDGEGPPGGRGEAQRRKDREELAQQYETILRECGHGRFQWTLYFVLGLALMADGVEVFVVGFVLPSAEKDMCLSDSNKGMLGLIVYLGMMVGAFLWGGLADRLGRRQCLLISLSVNSVFAFFSSFVQGYGTFLFCRLLSGVGIGGSIPIVFSYFSEFLAQEKRGEHLSWLCMFWMIGGVYAAAMAWAIIPHYGWSFQMGSAYQFHSWRVFVLVCAFPSVFAIGALTTQPESPRFFLENGKHDEAWMVLKQVHDTNMRAKGHPERVFSVTHIKTIHQEDELIEIQSDTGTWYQRWGVRALSLGGQVWGNFLSCFSPEYRRITLMMMGVWFTMSFSYYGLTVWFPDMIRHLQAVDYAARTKVFPGERVEHVTFNFTLENQIHRGGQYFNDKFIGLRLKSVSFEDSLFEECYFEDVTSSNTFFRNCTFINTVFYNTDLFEYKFVNSRLVNSTFLHNKEGCPLDVTGTGEGAYMVYFVSFLGTLAVLPGNIVSALLMDKIGRLRMLAGSSVLSCVSCFFLSFGNSESAMIALLCLFGGVSIASWNALDVLTVELYPSDKRTTAFGFLNALCKLAAVLGISIFTSFVGITKAAPILFASAALALGSSLALKLPETRGQVLQ
With B2 the expression_or_secretion ([1]; control: WT SV2A) was “no change”.

B3: SV2B: SV2B-N516A (protein)
parent chain: MDDYRYRDNYEGYAPNDGYYRGNEQNPEEDAQSDVTEGHDEEDEIYEGEYQGIPHPDDVKSKQTKMAPSRADGLRGQADLMAERMEDEEQLAHQYETIIDECGHGRFQWTLFFVLVLALMADGVEVFVVSFALPSAEKDMCLSSSKKGMLGLIVYLGMMAGAFILGGLADKLGRKKVLSMSLAINASFASLSSFVQGYGAFLFCRLISGIGIGGSLPIVFAYFSEFLSREKRGEHLSWLGIFWMTGGIYASAMAWSIIPHYGWGFSMGTNYHFHSWRVFVIVCALPATVSMVALKFMPESPRFLLEMGKHDEAWMILKQVHDTNMRAKGTPEKVFTVSHIKTPKQMDEFIEIQSSTGTWYQRWLVRFMTIFKQVWDNALYCVMGPYRMNTLILAVVWFTMALSYYGLTVWFPDMIRYFQDEEYKSKMKVFFGEHVHGATINFTMENQIHQHGKLVNDKFIKMYFKHVLFEDTFFDKCYFEDVTSTDTYFKNCTIESTTFYNTDLYKHKFIDCRFINSTFLEQKEGCHMDFEEDNDFLIYLVSFLGSLSVLPGNIISALLMDRIGRLKMIGGSMLISAVCCFFLFFGNSESAMIGWQCLFCGTSIAAWNALDVITVELYPTNQRATAFGILNGLCKLGAILGNTIFASFVGITKVVPILLAAASLVGGGLVALRLPETREQVLM
For B3, the expression_or_secretion ([1]; control: WT SV2B) was “decreases”.

B4: SUMO-bSV2C: human SV2C-L4 (V473-T567) with 6xHis/SUMO tag, expressed in E. coli (domain or fragment)
chain: VERDKYANFTINFTMENQIHTGMEYDNGRFIGVKFKSVTFKDSVFKSCTFEDVTSVNTYFKNCTFIDTVFDNTDFEPYKFIDSEFKNCSFFHNKT
B4 showed a Kd [2] of about 86 nM and a koff [2] of 0.11 s⁻¹.

— PMC5033645 (Nature structural & molecular biology, 2016)
